What was measured:
[1] = target: mouse C5aR2, purified from Sf9 cells (mC5aR2) (not stated | mouse) (UniProt P08173); test: SEC
[2] = target: mouse C5aR2, purified from Sf9 cells (mC5aR2) (not stated | mouse) (UniProt P08173); test: cryo-EM structure
[3] = target: human C5aR1-Rluc8 (human) (UniProt P21730)
[4] = target: human C3aR with C-terminal SmBiT (hC3aR) (human) (UniProt Q16581)
[5] = target: human C5aR1 with C-terminal SmBiT (hC5aR1-SmBiT) (human) (UniProt P21730)
[6] = target: T1, mouse C5aR1, purified (mC5aR1) for cryo-EM and HDX-MS (mouse, UniProt P30993 1-351); test: cryo-EM structure
T1 sequence: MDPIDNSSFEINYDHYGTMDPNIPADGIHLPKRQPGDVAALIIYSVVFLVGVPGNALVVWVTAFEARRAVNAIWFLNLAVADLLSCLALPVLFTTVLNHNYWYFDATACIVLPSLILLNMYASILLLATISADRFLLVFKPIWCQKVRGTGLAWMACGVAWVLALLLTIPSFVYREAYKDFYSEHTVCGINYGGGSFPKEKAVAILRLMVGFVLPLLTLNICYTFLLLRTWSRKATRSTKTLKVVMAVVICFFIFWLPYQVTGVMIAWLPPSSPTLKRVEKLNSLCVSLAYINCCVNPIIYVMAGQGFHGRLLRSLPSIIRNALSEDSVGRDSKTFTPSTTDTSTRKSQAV

human C5aR1 with C-terminal SmBiT (hC5aR1-SmBiT) (human), sequence (P21730 whole entry): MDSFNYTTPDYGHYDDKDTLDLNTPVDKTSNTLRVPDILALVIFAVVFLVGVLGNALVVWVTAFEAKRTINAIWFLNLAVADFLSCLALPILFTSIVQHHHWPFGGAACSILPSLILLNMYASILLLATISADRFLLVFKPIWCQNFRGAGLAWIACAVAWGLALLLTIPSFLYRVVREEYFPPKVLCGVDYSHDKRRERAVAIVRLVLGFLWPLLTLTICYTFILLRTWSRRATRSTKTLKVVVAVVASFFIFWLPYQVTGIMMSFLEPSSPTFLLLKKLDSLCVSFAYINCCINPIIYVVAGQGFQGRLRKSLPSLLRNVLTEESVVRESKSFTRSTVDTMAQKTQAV
human C5aR1-Rluc8 (human), sequence (P21730 whole entry): as above
human C3aR with C-terminal SmBiT (hC3aR) (human), sequence (Q16581 whole entry): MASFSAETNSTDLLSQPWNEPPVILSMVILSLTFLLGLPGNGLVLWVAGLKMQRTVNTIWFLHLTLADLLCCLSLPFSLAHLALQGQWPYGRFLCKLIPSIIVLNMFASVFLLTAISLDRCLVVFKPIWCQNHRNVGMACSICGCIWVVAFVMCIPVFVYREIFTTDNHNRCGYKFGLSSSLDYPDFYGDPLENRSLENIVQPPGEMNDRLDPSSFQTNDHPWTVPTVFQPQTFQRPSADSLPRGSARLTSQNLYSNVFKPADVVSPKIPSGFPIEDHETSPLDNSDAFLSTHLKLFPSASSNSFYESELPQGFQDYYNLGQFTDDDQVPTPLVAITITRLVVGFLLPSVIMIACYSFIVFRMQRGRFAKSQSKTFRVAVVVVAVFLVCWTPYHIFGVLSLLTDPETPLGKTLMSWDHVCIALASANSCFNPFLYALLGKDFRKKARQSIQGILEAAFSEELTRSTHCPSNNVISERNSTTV

What does the source list for “mouse C5aR2, purified from Sf9 cells (mC5aR2) (from UniProt P08173 2-23) (receptor)”?
stoichiometry N [1]: 2; stoichiometry N [2]: 2

[Tyr8]BM2020-8 peptide was tested. Which efficacy at C5aR1 relative to C5a; read-out not given [3] did it give?
The efficacy at C5aR1 relative to C5a; read-out not given was 41%.

With “R8Y, [Tyr1,Tyr8]BM2020-8, C5aR2-selective peptide agonist” as the molecule, how does the activation of C3aR (Figure S10D and Table S1) [4] read?
Its activation of C3aR (Figure S10D and Table S1) is over 10 µM.

What about the activation of C5aR1 (Figure S10D and Table S1) [5] of the same molecule?
The activation of C5aR1 (Figure S10D and Table S1) was over 10 µM.

B1: mouse complement anaphylatoxin C5a, recombinant (mC5a) (ligand)
chain: NLHLLRQKIEEQAAKYKHSVPKKCCYDGARVNFYETCEERVARVTIGPLCIRAFNECCTIANKIRKESPHKPVQLGR
Does B1 bind [6]?
Result: binds
